Test [1] has as its target T1, HCoV-HKU1 RBD (residues 310-606 of isolate N5), Fc- and His-tagged (Human coronavirus HKU1, isolate N5, UniProt Q0ZME7).
T1 construct: also called HCoV-HKU1 S1-CTD; not shown: Fc-tag, C-terminal, kept; 8X HisTag, C-terminal, kept
Description: SPR. To be noted: both partners purified.

Test [2] deals with T2, HCoV-HKU1 RBD (residues 310-606 of isolate N5), as used in BLI (Human coronavirus HKU1, isolate N5, UniProt Q0ZME7).
T2 construct: source: FreeStyle 293-F, transfected (PEI), purified (Protein A, Superdex 200)
T2 sequence (Q0ZME7 310-606): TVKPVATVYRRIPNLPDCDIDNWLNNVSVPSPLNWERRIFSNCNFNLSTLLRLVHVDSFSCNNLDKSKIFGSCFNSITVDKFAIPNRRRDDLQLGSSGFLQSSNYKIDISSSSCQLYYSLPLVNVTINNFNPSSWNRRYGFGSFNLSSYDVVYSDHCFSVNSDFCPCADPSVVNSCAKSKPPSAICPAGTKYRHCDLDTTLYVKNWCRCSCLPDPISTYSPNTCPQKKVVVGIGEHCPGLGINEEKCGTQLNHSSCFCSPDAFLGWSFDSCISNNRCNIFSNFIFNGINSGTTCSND
The test is described as follows: BLI. To be noted: both partners purified.

Here are results for four molecules from publication doi:10.1101/2025.10.29.685445 (bioRxiv, 2025).

T1 sequence (Q0ZME7 310-606): as above

B1: H501-008 Fab (Fab, V domains shown)
VH: QVQLVQSGGGVVQPGRSLRLSCAVSGFTLDRYAMHWVRQAPGKALEWVALMSADGREQYYAESVKGRFTFSRDSSKNTLYLQMHNLRTDDSSVYFCAREGPMYYDAWSGRSYYNNYALDVWGRGTTVAVSS
VL: QSVLTQPPSVSAAPGQTVTISCSGSSSNIGDNYVSWYQQVPGTAPRLLVYDNNRRPLGIPDRFSGSKSGTSATLAIAGLQTGDEADYYCGTWDSSLSAGVFGGGTKLTVV
notes: also called H501–08 Fab
The Kd is the equilibrium constant for the complex coming apart. Read a high Kd as lower affinity. Consider B1, for which binding in test [1] was put at a Kd of 0.161 nM.

B2: H501-008 IgG (antibody, V domains shown)
VH: QVQLVQSGGGVVQPGRSLRLSCAVSGFTLDRYAMHWVRQAPGKALEWVALMSADGREQYYAESVKGRFTFSRDSSKNTLYLQMHNLRTDDSSVYFCAREGPMYYDAWSGRSYYNNYALDVWGRGTTVAVSS
VL: QSVLTQPPSVSAAPGQTVTISCSGSSSNIGDNYVSWYQQVPGTAPRLLVYDNNRRPLGIPDRFSGSKSGTSATLAIAGLQTGDEADYYCGTWDSSLSAGVFGGGTKLTVV
notes: also called H501–08; mAb H501–008; copies: 2 + 2
By koff is commonly meant the rate constant with which the complex falls apart. Low values mean a long-lived complex, high ones a short-lived complex. By kon is commonly meant a measure of how fast the partners come together. Lower therefore signals slower complex formation. In test [2], B2 registered a Kd of 0.937 nM, an off-rate constant (koff) of 0.000315 s⁻¹ and a kon of 336000 M⁻¹ s⁻¹.

B3: H501-018 IgG (antibody, V domains shown)
VH: QVQLQESGPGLVKPSETLSLTCSVSGGSISNFYWSWIRQPPGKGLEWIGYIYYTGSSEYNPSLKSRVILSVDTSKNHFSLKLSSVTAADTAIYYCARGTWSRRLEVDLWGQGTLVTVSS
VL: QSVLTQPPSASGTPGQRVTISCSGSSSNIGSNYVYWYQQLPGTAPKLLIYRSIQRPSGVPDRFSGSKSGTSASLAISGLRSEDEADYYCATWDDSLNSWVFAGGTKLTVL
notes: also called mAb H501–018; H-018; copies: 2 + 2
In test [2], B3 returned a Kd of 0.37 nM, a koff of 0.000105 s⁻¹ and an association rate constant (kon) of 283000 M⁻¹ s⁻¹.

B4: H501-022 IgG (antibody, V domains shown)
VH: QGTLKESGPMLVKPTQTLTLTCNFSGFSLSTSGVGVGWIRQPPGKALECLALIYWNDDQRYSPSLKTRLTITKDTSKNQVVLTMTNMDPVDTATYYCVYSMSRPVAGGVIDHWGQGTLVTVSS
VL: DIQLTQSPSSLSASEGDRVTITCWASQNIRGYLNWYQQKPGKAPKLLIYATSTLESGVPSRFSGSGSVTDYTLTISSLQPEDFATYSCQQSYSSPPTFGGGTKVDIK
notes: also called mAb H501–022; H-022; copies: 2 + 2
With B4, in test [2], binding was put at a Kd of 2.01 nM, the koff was found to be 0.000555 s⁻¹ and the on-rate (kon) came out at 276000 M⁻¹ s⁻¹.
